Source: patent US20190112392A1 (Ablynx, published 2019)

What was measured:
human CD20 on cells [1] = target: T1, human CD20 on cells (human, UniProt P11836 1-297); assay: flow cytometry on Raji cells, MCF (Mean PE)
T1 construct: whole, on cells; Tumour antigen on the target cells; also called CD20 positive Ramos cells; Ramos cells
T1 sequence (looked up): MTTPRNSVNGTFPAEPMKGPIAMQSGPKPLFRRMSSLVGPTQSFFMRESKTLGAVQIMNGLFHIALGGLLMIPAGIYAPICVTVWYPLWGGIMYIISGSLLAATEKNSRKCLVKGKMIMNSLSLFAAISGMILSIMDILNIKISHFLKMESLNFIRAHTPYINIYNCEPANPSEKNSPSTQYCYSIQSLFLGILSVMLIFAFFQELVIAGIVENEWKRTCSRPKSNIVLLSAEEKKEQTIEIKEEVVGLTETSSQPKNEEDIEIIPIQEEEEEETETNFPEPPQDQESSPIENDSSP

human CD20 on cells [2] = target: T1, human CD20 on cells; assay: flow cytometry on Ramos cells, MCF (Mean PE)
human CD20 on cells [3] = target: T1, human CD20 on cells; assay: cell-based or functional assay
human CD20 on cells [4] = target: T1, human CD20 on cells; assay: cell-based or functional assay; remark: listed apart in the source
[5] = target: T2, T cell receptor alpha/beta on purified primary human T cells (human, UniProt P01848 1-140; P01850 1-176); assay: flow cytometry, purified primary human T cells; purified primary human T cells
T2 construct: whole, on cells; also called human primary T cells
T2 TCR alpha (looked up): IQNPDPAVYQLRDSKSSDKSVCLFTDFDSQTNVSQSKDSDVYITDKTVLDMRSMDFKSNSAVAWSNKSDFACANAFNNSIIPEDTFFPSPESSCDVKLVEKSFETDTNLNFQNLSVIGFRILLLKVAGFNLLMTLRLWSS
T2 TCR beta (looked up): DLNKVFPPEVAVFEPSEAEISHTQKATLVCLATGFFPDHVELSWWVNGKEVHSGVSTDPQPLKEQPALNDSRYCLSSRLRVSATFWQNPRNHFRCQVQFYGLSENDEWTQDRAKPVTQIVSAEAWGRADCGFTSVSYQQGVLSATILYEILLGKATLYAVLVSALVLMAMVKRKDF

human CD20 on cells [6] = target: T1, human CD20 on cells; assay: flow cytometry, Ramos cells
[7] = target: T3, soluble recombinant cynomolgus TCR alpha/beta-zipper protein (cynomolgus/rhesus monkey); assay: ELISA, 2 µg/mL coated soluble recombinant cynomolgus TCR α/β-zipper protein, OD 450 nm
T3 construct: Made in house in CHOK1SV cells; extracellular domains fused to a zipper protein; also called cynoTCR-zipper protein; not shown: zipper protein (O'Shea et al. 1993)
T3 V domain 1: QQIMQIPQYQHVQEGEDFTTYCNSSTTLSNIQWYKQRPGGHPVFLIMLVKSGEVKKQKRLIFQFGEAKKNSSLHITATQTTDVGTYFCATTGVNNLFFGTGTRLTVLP
T3 V domain 2: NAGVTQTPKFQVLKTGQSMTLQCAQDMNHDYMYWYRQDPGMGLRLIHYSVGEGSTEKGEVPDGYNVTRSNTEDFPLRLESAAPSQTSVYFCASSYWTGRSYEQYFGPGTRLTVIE
Protocol: Quality of the TCR α/β zipper proteins was assessed in an ELISA binding assay. Maxisorp 96-well ELISA plates (Nunc) were coated with 2 μg/mL soluble recombinant human TCR α/β (2XN9)-zipper protein or soluble recombinant cynomolgus TCR α/β-zipper protein. After an overnight incubation, plates were washed and blocked with PBS+1% casein for 1 h at room temperature. Next, plates were incubated with serial dilutions of either a functional flag tagged Nanobody or the functional mouse IgG anti-non-human primate/Rat TCRα/β antibody, clone R73 (eBioscience 16-5960) for 1 h at room temperature while shaking, washed again and incubated with mouse anti-flag-HRP (Sigma, #A8592) respectively rabbit anti-mouse-HRP (Dako, # P0260). After 1 h, TMB One Solution (Promega #G7431) was added. The reaction was stopped with 2M H₂SO₄ and the dose dependent binding was determined by measuring the OD at 450 nm using the Tecan sunrise 4 (FIG. 2).

[8] = target: T4, T cell receptor alpha/beta on primary cynomolgus T cells (cynomolgus); assay: cell-based or functional assay
[9] = target: T4, T cell receptor alpha/beta on primary …; assay: cell-based or functional assay; remark: listed apart in the source
[10] = target: T4, T cell receptor alpha/beta on primary …; assay: cell-based or functional assay; remark: listed apart in the source
[11] = target: T2, T cell receptor alpha/beta on purified …; assay: flow cytometry, purified primary human T cells
[12] = target: T4, T cell receptor alpha/beta on primary …; assay: cell-based or functional assay; remark: listed apart in the source

B1: anti-CD20 Nanobody (VHH)
VHH: EVQLVESGGGLVQPGGSLRLSCTFSGGTFSSYTMGWFRQAPGKEREFVAEVRWGGVTTYSNSLKDRFSISEDSVKNAVYLQMNSLKPEDTAVYYCAAVRQMYMTVVPDYWGQGTLVTVSS
EC50 (read off the curve) (human CD20 on cells [1]): ~20 nM | EC50 (read off the curve) (human CD20 on cells [2]): ~9 nM

B2: T017000068 (bispecific antibody)
chain: EVQLVESGGGLVQPGGSLRLSCTFSGGTFSSYTMGWFRQAPGKEREFVAEVRWGGVTTYSNSLKDRFSISEDSVKNAVYLQMNSLKPEDTAVYYCAAVRQMYMTVVPDYWGQGTLVTVSSGGGGSGGGGSGGGGSGGGGSGGGGSGGGGSGGGGSEVQLVESGGGLVQPGGSLRLSCITSGETFKINIWGWYRQAPGKQRELVASLTIGGATNYADSVKGRFTISEDSAKNTVYLQMNSLKPEDTAVYFCNAKSRLYPYDYWGQGTLVTVSSGAADYKDHDGDYKDHDIDYKDDDDKGAAHHHHHH
notes: CD20 x TCR bispecific Nanobody construct (cluster B); entry includes the FLAG3-HIS6 tag; also called 20CD019C07-35GS-T0170055C07-FLAG3-HIS6
IC50, flow cytometry based human T cell mediated Ramos killing assay, E:T 10:1 (human CD20 on cells [3]): 1 nM | IC50, xCELLigence human T cell mediated CHO-K1 CD20 killing assay, E:T 30:1, 44 h (human CD20 on cells [4]): 13 nM | EC50 [5]: 6.2 nM | EC50 (human CD20 on cells [6]): 1.8 nM

B3: cAblys (VHH)
VHH: DVQLQASGGGSVQAGGSLRLSCAASGYTIGPYCMGWFRQAPGKEREGVAAINMGGGITYYADSVKGRFTISQDNAKNTVYLLMNSLEPEDTAIYYCAADSTIYASYYECGHGLSTGGYGYDSWGQGTQVTVSS
notes: also called cAblys3; irrelevant anti-egg lysozyme Nanobody
binding result [7]: no binding (tested: 1e-6 M)

B4: T017000076 (bispecific antibody)
chain: EVQLVESGGGLVQPGGSLRLSCTFSGGTFSSYTMGWFRQAPGKEREFVAEVRWGGVTTYSNSLKDRFSISEDSVKNAVYLQMNSLKPEDTAVYYCAAVRQMYMTVVPDYWGQGTLVTVSSGGGGSGGGGSGGGGSGGGGSGGGGSGGGGSGGGGSEVQLVESGGGLVQPGGSLRLSCVASGDVHKINFLGWYRQAPGKEREKVAHISIGDQTDYADSAKGRFTISRDESKNMVYLQMNSLKPEDTAVYFCRAFSRIYPYDYWGQGTLVTVSSGAADYKDHDGDYKDHDIDYKDDDDKGAAHHHHHH
notes: CD20 x TCR bispecific Nanobody construct (cluster A); entry includes the FLAG3-HIS6 tag; also called 20CD019C07-35GS-T0170056G05-FLAG3-HIS6
IC50, xCELLigence cynomolgus T cell mediated CHO-K1 human CD20 killing assay, E:T 30:1 [8]: 0.67 nM | IC50, flow cytometry based cynomolgus T cell mediated B cell (Ramos) killing assay [9]: 0.309 nM | IC50, flow cytometry based human T cell mediated Ramos killing assay, E:T 10:1 (human CD20 on cells [3]): 0.3 nM | IC50, xCELLigence cynomolgus T cell mediated CHO-K1 human CD20 killing assay [10]: 0.14 nM | EC50 [11]: 130 nM | IC50, xCELLigence human T cell mediated CHO-K1 CD20 killing assay, E:T 30:1, 44 h (human CD20 on cells [4]): 0.36 nM | IC50, cynomolgus T cell dependent B cell (Ramos) killing assay [12]: 0.52 nM | EC50 (human CD20 on cells [6]): 1.8 nM
